# Publication PMC12509902, “PRMT1/PRMT5-Mediated Differential Arginine Methylation of CRIP1 Promotes the Recurrence of Small Cell Lung Cancer after Chemotherapy” (International Journal of Biological Sciences, 2025)
# Target: T1, 3×Flag-PRMT5 (UniProt O14744 1-637)
# T1 construct: Protein arginine methyltransferase 5 (PRMT5), from plasmid pCDH-CMV-3×Flag-PRMT5
# Experiment: pull-down; GST pull-down as described in ref. 23; GST-tagged protein expressed in BL21; Flag-tagged protein purified from HEK-293T by Flag affinity gel and 3× FLAG peptide elution; the paper calls the binding direct
# Conditions: both partners purified
# T1 sequence (O14744 whole entry): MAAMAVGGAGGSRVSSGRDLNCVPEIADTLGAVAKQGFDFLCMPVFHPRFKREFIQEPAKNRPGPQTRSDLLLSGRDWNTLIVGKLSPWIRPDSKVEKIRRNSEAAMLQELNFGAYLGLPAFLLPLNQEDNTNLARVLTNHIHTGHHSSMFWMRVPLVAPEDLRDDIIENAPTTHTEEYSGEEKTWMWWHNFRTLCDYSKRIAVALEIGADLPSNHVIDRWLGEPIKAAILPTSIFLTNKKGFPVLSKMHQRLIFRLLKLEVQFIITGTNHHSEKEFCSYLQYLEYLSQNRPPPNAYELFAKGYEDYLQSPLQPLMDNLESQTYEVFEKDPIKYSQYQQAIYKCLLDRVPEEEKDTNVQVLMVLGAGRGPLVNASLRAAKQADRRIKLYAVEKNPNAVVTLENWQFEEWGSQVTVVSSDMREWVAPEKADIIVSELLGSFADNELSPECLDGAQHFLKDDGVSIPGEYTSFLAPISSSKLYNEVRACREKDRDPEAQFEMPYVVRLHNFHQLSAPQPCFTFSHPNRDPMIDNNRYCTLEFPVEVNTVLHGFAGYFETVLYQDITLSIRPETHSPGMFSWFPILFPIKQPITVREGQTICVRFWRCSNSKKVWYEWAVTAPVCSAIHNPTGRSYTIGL
binder,measurement,value
"GST-CRIP1, full-length (FL), wild type (natural protein, UniProt P50238 1-77, looked up, Cysteine-rich intestinal protein 1 (CRIP1), full length, in pGEX-6P-1; also called GST-CRIP1 WT; source: E. coli BL21, induced with 1 mM IPTG) MPKCPKCNKEVYFAERVTSLGKDWHRPCLKCEKCGKTLTSGGHAEHEGKPYCNHPCYAAMFGPKGFGRGGAESHTFK",binding result,binds
